These results are taken from patent publication US20260049134A1 (UNIVERSITY OF FLORIDA RESEARCH FOUNDATION, published 2026).

In test [1] the target is T1, CADM1, endogenous in H929 multiple myeloma cells (human, UniProt Q9BY67 45-442).
T1 construct: Native protein on H929 cells (flow cytometry, siRNA knockdown) and in H929 lysates (IP/MS); also called IGSF4A
T1 sequence: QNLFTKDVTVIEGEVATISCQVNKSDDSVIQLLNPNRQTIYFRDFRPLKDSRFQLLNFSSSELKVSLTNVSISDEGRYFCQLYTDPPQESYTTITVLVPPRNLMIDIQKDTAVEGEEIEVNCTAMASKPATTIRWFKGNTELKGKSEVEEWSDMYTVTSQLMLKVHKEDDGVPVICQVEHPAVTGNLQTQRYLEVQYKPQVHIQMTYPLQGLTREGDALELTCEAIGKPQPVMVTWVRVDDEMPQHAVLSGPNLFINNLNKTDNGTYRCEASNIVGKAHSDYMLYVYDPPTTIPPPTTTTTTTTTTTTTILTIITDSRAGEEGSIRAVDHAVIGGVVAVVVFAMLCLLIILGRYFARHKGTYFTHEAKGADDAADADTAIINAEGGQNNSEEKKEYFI
In words: flow cytometry, IgG1 on H929 cells. As to the method:
(§1) Staining protocol. Cells were harvested (5×10⁴ cells per sample), washed once with phosphate-buffered saline (PBS) at RT, and a second time with ice-cold FACS buffer (PBS, 0.5% BSA, 2 mM EDTA, 0.1% NaN₃). Cells were stained in 50 μL of primary antibody for 30 min on ice, washed twice with 100 μL FACS buffer, stained with 50 μL of diluted secondary antibody, washed two more times in FACS, and then resuspended in 50 μL FACS buffer. Samples were acquired on an Accuri C6 Plus or a BD FACSCanto II flow cytometer (both from BD Biosciences). Data were analyzed using FlowJo version 10 software. Primary antibodies: Fab (10 μg/mL), IgG1 (0.1 to 50 μg/mL), or 25 μL polyclonal Fabs from periplasmic extracts. Polyclonal Fabs were produced by diluting bacterial stocks by a factor of 100 in autoinduction media and incubating overnight to induce expression as previously described. […] Viability stains: DAPI (Cell Signaling Technology) or SYTOX AADvanced Dead Cell Stain (Thermo Fisher Scientific). Labeling: The panel of chimeric rabbit/human IgG1s was labeled using the Alexa Fluor 647 Labeling Kit (Thermo Fisher Scientific, #A20173) to facilitate single-step staining. Competition: Unlabeled IgG1s were added at saturating concentrations of 60 μg/mL to block the target receptors, incubating on ice for 30 min, followed by the addition of an equal volume of the Alexa Fluor 647 labeled antibody at 2 μg/mL, and the mixture was incubated on ice for another 30 min.
Background: A flow cytometer gives signals particle by particle.

In the next test the target is T2, CADM1 on RPMI-8226 cells (human, UniProt Q9BY67).
T2 sequence (single chain, looked up): T1 sequence
The test can be described thus: flow cytometry, IgG1 on RPMI-8226 cells. As to the method:
as §1

Test [2] addresses T1, CADM1, endogenous in H929 multiple …. The test can be described thus: flow cytometry, H929 + NT Green siRNA; None 416.
For test [3], the target named is T3, GARS-His (Sino Biological) (human, UniProt P41250 37-739, limits assumed).
T3 construct: Bought; also called GARS1; glycyl-tRNA synthetase; not shown: His tag of the bought protein
T3 sequence: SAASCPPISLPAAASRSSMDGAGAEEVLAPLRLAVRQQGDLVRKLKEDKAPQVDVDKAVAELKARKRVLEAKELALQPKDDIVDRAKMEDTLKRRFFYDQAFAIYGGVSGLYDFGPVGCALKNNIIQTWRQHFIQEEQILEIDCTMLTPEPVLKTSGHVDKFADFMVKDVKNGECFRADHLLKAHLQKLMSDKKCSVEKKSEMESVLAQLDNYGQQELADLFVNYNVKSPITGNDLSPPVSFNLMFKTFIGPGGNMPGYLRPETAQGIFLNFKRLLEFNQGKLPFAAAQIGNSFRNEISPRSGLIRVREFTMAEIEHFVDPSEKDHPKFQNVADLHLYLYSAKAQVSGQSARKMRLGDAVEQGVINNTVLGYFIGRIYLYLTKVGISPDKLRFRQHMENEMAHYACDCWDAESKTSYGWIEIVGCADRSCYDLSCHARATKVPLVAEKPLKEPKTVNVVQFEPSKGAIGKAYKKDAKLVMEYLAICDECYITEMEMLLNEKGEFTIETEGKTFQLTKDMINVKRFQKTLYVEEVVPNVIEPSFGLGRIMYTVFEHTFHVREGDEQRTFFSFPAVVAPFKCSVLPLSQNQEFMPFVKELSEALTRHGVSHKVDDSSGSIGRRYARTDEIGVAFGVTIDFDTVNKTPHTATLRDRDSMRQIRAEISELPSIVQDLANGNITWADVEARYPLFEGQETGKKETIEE
The test can be described thus: ELISA on coated GARS-His. The protocol: Recombinant purified ECDs (50-150 ng) of each putative target protein were coated, incubated with 150 ng of the indicated primary antibody, and binding was detected using a peroxidase-conjugated anti-human Fab secondary antibody. Heatmap represents averages of technical triplicates. (8B) Target validation via siRNA knockdown. H929 cells were transfected with siRNA pools targeting the putative antibody targets ICAM1, CADM1, and PTPRG. Cells were then subjected to cognate IgG binding analysis via flow cytometry. (NT, non-targeting siRNA).
ELISA ELISA was conducted as described previously. Briefly, 50-150 ng of antigen was coated overnight in half-area 96-well plates at 4° C., blocked with 3% BSA at 37° C. for 1 h, and 150 ng of chimeric rabbit/human IgG1 was added, incubating for 2 h at 37° C. […] After incubating at 37° C. for 15 min-1 h (depending on intensity of controls), data were acquired using a SpectraMax M5 plate reader (Molecular Devices).
A general note: ELISA stands for enzyme-linked immunosorbent assay.

Residue numbers refer to the chain shown, from its start. Numbers in names are those of the source.

B1: HW-97 chimeric rabbit-human IgG1 LA/LA/PG (antibody, V domains shown)
VH: QKQLVESGGRLVTPGTPLTLTCTVTGIDLSSHGMSWVRQAPGKGLEWIGVIYPSGSTWYASWARGRFTISKTSTTVDLKMTSLTTEDTATHFCARGDVGGADNNIWGPGTLVTVSS
VL: SFVLTQPASVQVDLGQTVSLTCTAETLSRSYASWYQQKPGQAPVLLIYRDTSRPSGVPDRFSGSSSGNTATLTISGAQAGDEADYYCATSDGSGSSYQYVFGGGTQLTVTG
notes: Fc-silenced (L234A/L235A/P329G) IgG1, lambda; Alexa Fluor 647-labeled in single-step flow cytometry; Prototype of cluster C-97
B1: the “antibody-bound positive cells (%)” value in test [1] came to 98.6%; with CADM1 on RPMI-8226 cells, 98.8%. Moreover, the “mAb binding (MFI)” value in test [2] was 9600.

B2: HW-101 chimeric rabbit-human IgG1 LA/LA/PG (antibody, V domains shown)
VH: QEQLVESGGRLVTPGTPLTLTCKASGFSLGKYDMSWVRQAPGKGLEWIGTIYAGSGSTWYASWAKGRFTISKTSTTVDLKMTSLTTEDTATYFCARDFLGVNSIWGPGTLVTISS
VL: B1 VL with D13N, E25D, G40D, Y48H, S65N, S96N, Y97F, Q98H, Y99F
notes: Fc-silenced (L234A/L235A/P329G) IgG1, lambda; Alexa Fluor 647-labeled in single-step flow cytometry; Cluster C-97
As for B2, the “antibody-bound positive cells (%)” value in test [1] worked out at 95.3%; with CADM1 on RPMI-8226 cells, 97.6%. In test [2], the “mAb binding (MFI)” value was determined as 6440.

B3: TH9-0022 (antibody, human IgG1, kappa, L234A L235A, V domains shown)
VH: QSLEESGGRLVTPGTPLTLTCTVSGFSLSSYAMNWVRQAPGKGLEWIGIINSYGSTYYASWAKGRFTISKTSTTVDLKITSPTTEDTATYFCARVTYDSYGYGYAPYGMDLWGPGTLVTVSS
VL: LVMTQTPSSTSNAVGGTVTIKCQASQSIGNVLAWYQQKPGQPPKLLIYAASTLASGVPSRVGGSRSGTEYTLTISGVQREDAATYYCLGSDSDSDIAFGGGTELEILR
notes: also called TH9-022; negative control
As to B3, the binding result in test [3] is “no binding (tested: 150 ng IgG1 per well)”. The “mAb binding (MFI)” value in test [2] was 483.
